The nature of the data set: collision cross section of modified peptide (TIMS, N2, iRT-aligned); higher = larger / more extended gas-phase ion. A digest of the protocol: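 Collision cross section values rest on the Mason-Schamp equation applied to calibrated, run-aligned mobility data from synthetic peptides. Mobility (1/K0) was calibrated with three reference ions and aligned per run to the median iRT peptide deviation, and 1–3 technical replicates of the most abundant feature per charge state were averaged. Data came from a timsTOF Pro/HT in dda-PASEF mode (nitrogen, ~2.4 mbar) after a 120-min nanoflow C18 gradient at 60 °C.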

The mark [1] stands for this setting: charge state: 2, modification: hydroxyisobutyryl.
The mark [2] stands for this setting: charge state: 3, modification: hydroxyisobutyryl.
The mark [3] stands for this setting: charge state: 2, modification: Trimethyl (K).
Where [4] appears, read: charge state: 3, modification: Trimethyl (K).
Where [5] appears, read: charge state: 2, modification: Succinyl.
Where [6] appears, read: charge state: 3, modification: Succinyl.
[7] abbreviates: charge state: 2, modification: Nitro (Y).
Where [8] appears, read: charge state: 2, modification: Dimethyl (K).
The mark [9] stands for this setting: charge state: 3, modification: Dimethyl (K).
The mark [10] stands for this setting: charge state: 3, modification: HexNAc (ST).
The mark [11] stands for this setting: charge state: 2, modification: GlyGly (K).
The mark [12] stands for this setting: charge state: 3, modification: GlyGly (K).
The mark [13] stands for this setting: charge state: 2, modification: HexNAc (ST).
Where [14] appears, read: charge state: 2, modification: Malonyl.
Where [15] appears, read: charge state: 3, modification: Methyl (R).
Where [16] appears, read: charge state: 2, modification: Citrullination (R).
Where [17] appears, read: charge state: 3, modification: Glutarylation.
The mark [18] stands for this setting: charge state: 2, modification: Hydroxyproline.
[19] abbreviates: charge state: 3, modification: Hydroxyproline.
[20] abbreviates: charge state: 2, modification: Acetyl (K).
Where [21] appears, read: charge state: 3, modification: Acetyl (K).
[22] abbreviates: charge state: 2, modification: Glutarylation.
The mark [23] stands for this setting: charge state: 2, modification: Crotonyl.
Where [24] appears, read: charge state: 2, modification: Formyl.
Where [25] appears, read: charge state: 2, modification: Methyl (R).
The mark [26] stands for this setting: charge state: 2, modification: Butyryl.
Setting [27] is: charge state: 2, modification: Methyl (K).
Where [28] appears, read: charge state: 3, modification: Methyl (K).

± gives the standard deviation.

On to “GTITVSAQELKDNR [_GTITVSAQELK(hydroxyisobutyryl)DNR_]”, for which the collision cross section is, setting by setting: under setting [1], 423.58 ± 0.3 Å²; under setting [2], 485.27 ± 2.8 Å².
As to DHLSDKESK [_DHLSDK(Trimethyl (K))ESK_], the collision cross section by setting is: under setting [3], 350.64 ± 1.1 Å²; under setting [4], 401.61 ± 0.025 Å².
For the substance “FGTINIVHPKLGSYTK [_FGTINIVHPK(Succinyl)LGSYTK_]”, the collision cross section is, setting by setting: under setting [5], 474.47 ± 1.3 Å²; under setting [6], 560.66 ± 0.77 Å².
YEITEQR [_Y(Nitro (Y))EITEQR_]: the collision cross section under setting [7] turned out to be 327.03 ± 0.71 Å².
“LQDVSGQLSSSKK [_LQDVSGQLSSSK(Trimethyl (K))K_]” yielded a collision cross section under setting [3] of 417.06 ± 1.1 Å² and a collision cross section under setting [4] of 475.09 ± 1.5 Å².
In the case of GEVQVSDKER [_GEVQVSDK(Dimethyl (K))ER_], the collision cross section reads like this: under setting [8], 362.93 ± 0.58 Å²; under setting [9], 422.58 ± 1.6 Å².
Take “LGSASSSHGSIQESHK [_LGS(HexNAc (ST))ASSSHGSIQESHK_]”: the collision cross section under setting [10] is 519.96 ± 0.18 Å².
On to “YIEIYVQKVNPSR [_YIEIYVQK(GlyGly (K))VNPSR_]”, for which the collision cross section under setting [11] is reported as 453.07 ± 1.4 Å² and the collision cross section under setting [12] is 515.19 ± 0.35 Å².
The substance “PANEKATDDYHYEK [_PANEK(Biotin)ATDDYHYEK_]” gave a collision cross section (charge state: 3, modification: Biotin) of 529.25 ± 3.6 Å².
As for “IEDEQALGSQLQK [_IEDEQALGS(HexNAc (ST))QLQK_]”, the collision cross section by setting is: under setting [13], 424.7 ± 0.62 Å²; under setting [10], 499.3 ± 0.96 Å².
With “SLGEPAAGEGSAKR [_SLGEPAAGEGSAK(hydroxyisobutyryl)R_]”, the collision cross section is, setting by setting: under setting [1], 389.47 ± 1.5 Å²; under setting [2], 485.86 ± 2.8 Å².
Turning to “YEEIVKEVSTYIK [_YEEIVK(Malonyl)EVSTYIK_]”, the collision cross section under setting [14] is 438.59 ± 1.6 Å².
Substance GAEKTEVAEPR [_GAEK(Succinyl)TEVAEPR_] showed a collision cross section under setting [5] of 372.49 ± 0.4 Å².
In turn, “HFGPVPPSQGRGR [_HFGPVPPSQGR(Methyl (R))GR_]” came in with a collision cross section under setting [15] of 491.26 ± 0.38 Å².
As for “CSVLAAANPVYGR [_CSVLAAANPVY(Nitro (Y))GR_]”, under setting [7], the collision cross section was found to be 387.22 ± 0.17 Å².
With “VLTANSNPSSPSAAKR [_VLTANSNPSSPSAAK(GlyGly (K))R_]”, the collision cross section by setting is: under setting [11], 445.95 ± 0.95 Å²; under setting [12], 511.93 ± 0.35 Å².
Under setting [12], “YEQEHAAIQDKLFQVAK [_YEQEHAAIQDK(GlyGly (K))LFQVAK_]” had a collision cross section of 562.29 ± 1.2 Å².
As to TATLATLATR [_TATLATLAT(HexNAc (ST))R_], the collision cross section under setting [13] turned out to be 364.8 ± 0.64 Å².
“RGFGFGGFAISAGK [_R(Citrullination (R))GFGFGGFAISAGK_]”: the collision cross section under setting [16] came out at 391.71 ± 0.23 Å².
For “DLTTAGAVTQCYR [_DLTTAGAVTQCY(Phospho (Y))R_]”, where the note is “charge state: 2, modification: Phospho (Y)”, the collision cross section is 405.28 ± 0.061 Å².
With “VFIGNLNTLVVKKK [_VFIGNLNTLVVK(Gluratylation)KK_]”, the collision cross section under setting [17] came out at 521.05 ± 1.8 Å².
With “GEKGDPGLIGPK [_GEKGDP(Hydroxyproline)GLIGPK_]”, the collision cross section under setting [18] was 375.69 ± 1.9 Å² and the collision cross section under setting [19] was 437 ± 1.3 Å².
Turning to “DLSTVEALQNLKNLK [_DLSTVEALQNLK(Acetyl (K))NLK_]”, the collision cross section by setting is: under setting [20], 475.96 ± 3.5 Å²; under setting [21], 544.02 Å².
As to “LQAAYAGDKADDIQK [_LQAAYAGDK(Gluratylation)ADDIQK_]”, the collision cross section runs as follows: under setting [22], 440.38 ± 0.95 Å²; under setting [17], 496.91 ± 1 Å².
Under setting [23], “ALASIDSKLNQAK [_ALASIDSK(Crotonyl)LNQAK_]” yielded a collision cross section of 401.19 ± 0.9 Å².
Substance “IPQEKCILQTDVK [_IPQEK(Malonyl)CILQTDVK_]” yielded a collision cross section under setting [14] of 431.57 Å².
For the substance SITHSTVGSKGEK [_SITHSTVGSK(Formyl)GEK_], the collision cross section is given as 387.87 ± 1.4 Å² under setting [24] and 435.39 ± 3 Å² (charge state: 3, modification: Formyl).
As for GRGAPPPPPSR [_GR(Methyl (R))GAPPPPPSR_], the collision cross section by setting is: under setting [25], 339.22 Å²; under setting [15], 437.5 Å².
Consider DHLSDKESK [_DHLSDK(GlyGly (K))ESK_], for which the collision cross section under setting [11] stood at 353.15 ± 0.53 Å² and the collision cross section under setting [12] stood at 411.26 Å².
Under setting [24], IISSIEQKEENK [_IISSIEQK(Formyl)EENK_] showed a collision cross section of 398.84 ± 0.2 Å².
With “RGGFAVQAK [_R(Citrullination (R))GGFAVQAK_]”, the collision cross section under setting [16] is reported as 326.29 ± 0.63 Å².
Take YHEDIFGLTLR [_Y(Nitro (Y))HEDIFGLTLR_]: the collision cross section by setting is: under setting [7], 391.96 ± 0.8 Å²; (charge state: 3, modification: Nitro (Y)) 465.92 ± 0.23 Å².
Under setting [15], “GAPGGRGAQLSVPSPAR [_GAPGGR(Methyl (R))GAQLSVPSPAR_]” showed a collision cross section of 494.35 ± 0.66 Å².
As for “VETTVTSLKTK [_VETTVTSLK(Dimethyl (K))TK_]”, the collision cross section under setting [8] is given as 385.99 ± 0.37 Å² and the collision cross section under setting [9] was 450.04 ± 3.7 Å².
For the substance “LDEKENLSAK [_LDEK(Gluratylation)ENLSAK_]”, under setting [22], the collision cross section came to 373.82 ± 0.62 Å².
For the substance “GGFQNRGGGSGGGGNYR [_GGFQNR(Citrullination (R))GGGSGGGGNYR_]”, the collision cross section was 403.21 ± 0.81 Å² under setting [16] and 503.84 Å² (charge state: 3, modification: Citrullination (R)).
In turn, “PSVGSQSNQAGQGKR [_PSVGSQSNQAGQGK(Gluratylation)R_]” showed a collision cross section under setting [22] of 412.64 ± 1.7 Å² and a collision cross section under setting [17] of 479.06 ± 9.1 Å².
As to “GGSGGRGVSVSSAR [_GGSGGR(Methyl (R))GVSVSSAR_]”, the collision cross section is, setting by setting: under setting [25], 384.84 ± 7.6 Å²; under setting [15], 464.84 ± 13 Å².
Under setting [26], VGTASVLQPVKK [_VGTASVLQPVK(Butyryl)K_] returned a collision cross section of 385.91 ± 0.85 Å².
Consider “VLTANSNPSSPSAAKR [_VLTANSNPSSPSAAK(Butyryl)R_]”, for which the collision cross section reads like this: under setting [26], 432.84 ± 1.8 Å²; (charge state: 3, modification: Butyryl) 531.28 ± 2.7 Å².
Take GAEKTEVAEPR [_GAEK(Crotonyl)TEVAEPR_]: the collision cross section under setting [23] is listed as 370.18 ± 9 Å².
For “GERGPPGPPGR [_GERGPPGP(Hydroxyproline)PGR_]”, under setting [19], the collision cross section amounted to 409.61 ± 0.34 Å².
For “VGEFSGANKEK [_VGEFSGANK(Trimethyl (K))EK_]”, the collision cross section was 384.48 ± 1.7 Å² under setting [3] and 437.18 ± 7.5 Å² under setting [4].
On to GAEKTEVAEPR [_GAEK(Formyl)TEVAEPR_], for which the collision cross section under setting [24] was determined as 371.26 ± 0.89 Å².
On the same count and under the same terms, the result for ITGKNQVTATK [_ITGK(Formyl)NQVTATK_] reads 360.79 ± 0.79 Å².
Substance “GERGFPGYPGPK [_GERGFP(Hydroxyproline)GYPGPK_]” yielded a collision cross section under setting [18] of 370.65 ± 1.8 Å².
Turning to “DAIHFYNKSLAEHR [_DAIHFYNK(GlyGly (K))SLAEHR_]”, the collision cross section under setting [12] turned out to be 519.9 ± 0.35 Å².
“PGGEGPQCEKTTDVK [_PGGEGPQCEK(Formyl)TTDVK_]” displayed a collision cross section under setting [24] of 413.32 Å².
Consider VGEFSGANKEK [_VGEFSGANK(Methyl (K))EK_], for which the collision cross section under setting [27] amounted to 374.84 ± 0.74 Å² and the collision cross section under setting [28] stood at 443.95 ± 6.6 Å².
ALLQAKASGK [_ALLQAK(Acetyl (K))ASGK_] gave a collision cross section under setting [20] of 343.77 ± 0.2 Å².
“SQAGASELGPFSDPR [_SQAGASELGPFS(HexNAc (ST))DPR_]”: the collision cross section under setting [13] was 425.39 ± 1.3 Å².
On to “LLFSNTAAQKLR [_LLFSNTAAQK(Dimethyl (K))LR_]”, for which the collision cross section came to 419.08 ± 0.75 Å² under setting [8] and 473.77 ± 2.6 Å² under setting [9].
For the substance “STGLELETPSLVPVKK [_STGLELETPSLVPVK(Methyl (K))K_]”, the collision cross section turned out to be 452.34 ± 2.6 Å² under setting [27] and 516.69 ± 3.1 Å² under setting [28].
In turn, “YEQEHAAIQDKLFQVAK [_YEQEHAAIQDK(Acetyl (K))LFQVAK_]” displayed a collision cross section under setting [21] of 513.78 ± 1.6 Å².
Take “SSGPGGQNVNKVNSK [_SSGPGGQNVNK(Gluratylation)VNSK_]”: the collision cross section by setting is: under setting [22], 409.46 ± 0.95 Å²; under setting [17], 446.64 ± 1.9 Å².
In the case of “PANEKATDDYHYEK [_PANEK(Dimethyl (K))ATDDYHYEK_]”, under setting [9], the collision cross section came to 491.56 Å².
Regarding “ASDTSSETVFGKR [_ASDTSSETVFGK(Succinyl)R_]”, the collision cross section by setting is: under setting [5], 396.57 ± 0.25 Å²; under setting [6], 482.91 ± 3.3 Å².
The substance “LQLEIDQKK [_LQLEIDQK(hydroxyisobutyryl)K_]” yielded a collision cross section under setting [1] of 371.26 ± 0.27 Å².
With LAEEENKAK [_LAEEENK(GlyGly (K))AK_], the collision cross section under setting [11] came to 356.17 ± 0.39 Å² and the collision cross section under setting [12] is reported as 428.57 ± 0.75 Å².
For LDEKENLSAK [_LDEK(Succinyl)ENLSAK_], under setting [5], the collision cross section was determined as 369.34 ± 0.74 Å².

For the origin of these results see the supplement of paper PMC10598134.
